B1: QP20 (peptide)
peptide: QTRTVPMPKIHHPPWQNVVP
notes: Found by phage display; also called peptide QP20
B2: HD20 (peptide)
peptide: HHHQVYQVRSHWTGMHSGHD
notes: Found by phage display; also called peptide HD20
B3: SQ20 (peptide)
peptide: SSYHHFKMPELHFGKNTFHQ
notes: Found by phage display; also called peptide SQ20

Assays:
[1] = target: T1, soluble recombinant human PD-1 receptor (human, UniProt Q15116 25-167, limits assumed); experiment: clonal phage ELISA, peptide on phage, wells coated with PD-1
T1 construct: also called human PD-1 receptors
T1 sequence (Q15116 25-167 limits assumed): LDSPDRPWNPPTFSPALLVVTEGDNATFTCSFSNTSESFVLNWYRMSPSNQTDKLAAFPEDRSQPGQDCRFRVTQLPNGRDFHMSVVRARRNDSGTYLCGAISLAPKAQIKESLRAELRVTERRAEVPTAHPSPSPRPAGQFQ

[2] = target: human PD-1 on Jurkat cells (human, UniProt Q15116 25-288); experiment: cell-based or functional assay
Chain of human PD-1 on Jurkat cells (Q15116 25-288): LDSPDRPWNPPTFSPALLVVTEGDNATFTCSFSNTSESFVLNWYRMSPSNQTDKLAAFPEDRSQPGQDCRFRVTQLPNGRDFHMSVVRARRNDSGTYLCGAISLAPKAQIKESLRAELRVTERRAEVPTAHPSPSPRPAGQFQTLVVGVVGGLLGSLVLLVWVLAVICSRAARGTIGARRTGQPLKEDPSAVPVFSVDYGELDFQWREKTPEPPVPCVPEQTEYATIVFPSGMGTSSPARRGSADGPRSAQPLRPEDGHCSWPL

Binder | coated signal [1] | peak-fold inhibition (luciferase reporter) [2] [fold]
B1 | 0.851 | ~1.5
B2 | 0.281 | ~1.5
WNLPASFHNHHIRPHEHEWIQ (also called WQ-21; peptide WQ20) [WQ20] | 0.275 | ~1.5
B3 | 0.284 | ~1.5

From patent EP3758732B1 (Leidos, Inc., dated 2024)
